These results are taken from patent US20250368745A1 (published 2025).

Changes are numbered by the printed parent chain. Names and notes keep the numbering of the source.

The labels stand for the following.
T1: human IL-18BP (human, UniProt O95998 31-194)
T1 construct: also called hIL-18BP; Mature Human Isoform A
T1 sequence: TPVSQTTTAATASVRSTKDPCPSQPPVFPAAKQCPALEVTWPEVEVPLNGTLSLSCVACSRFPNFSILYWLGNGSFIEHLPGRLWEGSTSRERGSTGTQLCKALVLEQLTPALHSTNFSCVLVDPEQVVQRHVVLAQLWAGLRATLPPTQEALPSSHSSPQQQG

T2: cynomolgus IL-18BP (cynomolgus monkey)
T2 construct: also called cyno IL-18BP; cyIL-18BP
T2 chain: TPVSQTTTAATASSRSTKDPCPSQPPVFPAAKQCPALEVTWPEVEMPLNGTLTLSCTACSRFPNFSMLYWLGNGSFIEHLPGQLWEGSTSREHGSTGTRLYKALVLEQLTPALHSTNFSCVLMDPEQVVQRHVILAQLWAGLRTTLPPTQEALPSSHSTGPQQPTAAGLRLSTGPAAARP

T3: human IL-18BP (human, UniProt O95998 31-194)
T3 construct: UniProt printed as 095998; also called hIL-18BP
T3 sequence: T1 sequence

B1: SA301a light chain variant V29M (antibody, V domains shown)
VH: QVQLQESGPGLVKPSQTLSLTCTVSGYSITSDYNSHWIRQPPGKGLEWIGYIHYSGSTNYNPSLKSRVTISRDTSKNQFSLKLSSVTAADTAVYYCARNYGSIYVNYFDYWGQGTLVTVSS
VL: EIVLTQSPATLSLSPGERATLSCSASSSMSYMYWYQQKPGQAPRPLIYRTSNLASGIPARFSGSGSGTDFTLTISSLEPEDFAVYYCQQYHSYPTFGGGTKVEIK
B2: SA301a HC-H52D (antibody, name in Kabat numbering, V domains shown)
VH: B1 VH with H53D
VL: B1 VL with M29V
notes: IgG1 kappa
B3: SA301a HC-H52R (antibody, name in Kabat numbering, V domains shown)
VH: B1 VH with H53R
VL: B1 VL with M29V
notes: IgG1 kappa
B4: SA301a HC-I51M (antibody, name in Kabat numbering, V domains shown)
VH: B1 VH with I52M
VL: B1 VL with M29V
notes: IgG1 kappa
B5: SA301a HC-H52N (antibody, name in Kabat numbering, V domains shown)
VH: B1 VH with H53N
VL: B1 VL with M29V
notes: IgG1 kappa
B6: SA301a HC-Y50K (antibody, name in Kabat numbering, V domains shown)
VH: B1 VH with Y51K
VL: B1 VL with M29V
notes: IgG1 kappa
B7: SA301a HC-Y50F (antibody, name in Kabat numbering, V domains shown)
VH: B1 VH with Y51F
VL: B1 VL with M29V
notes: IgG1 kappa
B8: SA301a HC-Y50I (antibody, name in Kabat numbering, V domains shown)
VH: B1 VH with Y51I
VL: B1 VL with M29V
notes: IgG1 kappa
B9: SA301a HC-Y50H (antibody, name in Kabat numbering, V domains shown)
VH: B1 VH with Y51H
VL: B1 VL with M29V
notes: IgG1 kappa
B10: SA301a HC-H52V (antibody, name in Kabat numbering, V domains shown)
VH: B1 VH with H53V
VL: B1 VL with M29V
notes: IgG1 kappa
B11: SA301a HC-Y50E (antibody, name in Kabat numbering, V domains shown)
VH: B1 VH with Y51E
VL: B1 VL with M29V
notes: IgG1 kappa
B12: SA301a HC-I51Y (antibody, name in Kabat numbering, V domains shown)
VH: B1 VH with I52Y
VL: B1 VL with M29V
notes: IgG1 kappa
B13: SA301a HC-Y50L (antibody, name in Kabat numbering, V domains shown)
VH: B1 VH with Y51L
VL: B1 VL with M29V
notes: IgG1 kappa
B14: SA301a HC-I51E (antibody, name in Kabat numbering, V domains shown)
VH: B1 VH with I52E
VL: B1 VL with M29V
notes: IgG1 kappa
B15: SA301a HC-H52I (antibody, name in Kabat numbering, V domains shown)
VH: B1 VH with H53I
VL: B1 VL with M29V
notes: IgG1 kappa
B16: SA301a HC-I51V (antibody, name in Kabat numbering, V domains shown)
VH: B1 VH with I52V
VL: B1 VL with M29V
notes: IgG1 kappa
B17: SA301a HC-Y50D (antibody, name in Kabat numbering, V domains shown)
VH: B1 VH with Y51D
VL: B1 VL with M29V
notes: IgG1 kappa
B18: SA301a HC-I51D (antibody, name in Kabat numbering, V domains shown)
VH: B1 VH with I52D
VL: B1 VL with M29V
notes: IgG1 kappa
B19: SA301a HC-H52G (antibody, name in Kabat numbering, V domains shown)
VH: B1 VH with H53G
VL: B1 VL with M29V
notes: IgG1 kappa
B20: SA301a HC-Y50G (antibody, name in Kabat numbering, V domains shown)
VH: B1 VH with Y51G
VL: B1 VL with M29V
notes: IgG1 kappa
B21: SA301a HC-Y50Q (antibody, name in Kabat numbering, V domains shown)
VH: B1 VH with Y51Q
VL: B1 VL with M29V
notes: IgG1 kappa
B22: SA301a HC-I51P (antibody, name in Kabat numbering, V domains shown)
VH: B1 VH with I52P
VL: B1 VL with M29V
notes: IgG1 kappa
B23: SA301a HC-I51L (antibody, name in Kabat numbering, V domains shown)
VH: B1 VH with I52L
VL: B1 VL with M29V
notes: IgG1 kappa
B24: SA301a HC-I51F (antibody, name in Kabat numbering, V domains shown)
VH: B1 VH with I52F
VL: B1 VL with M29V
notes: IgG1 kappa
B25: SA301a HC-I51T (antibody, name in Kabat numbering, V domains shown)
VH: B1 VH with I52T
VL: B1 VL with M29V
notes: IgG1 kappa
B26: SA301a HC-Y50S (antibody, name in Kabat numbering, V domains shown)
VH: B1 VH with Y51S
VL: B1 VL with M29V
notes: IgG1 kappa
B27: SA301a HC-Y50R (antibody, name in Kabat numbering, V domains shown)
VH: B1 VH with Y51R
VL: B1 VL with M29V
notes: IgG1 kappa
B28: SA301a HC-I51G (antibody, name in Kabat numbering, V domains shown)
VH: B1 VH with I52G
VL: B1 VL with M29V
notes: IgG1 kappa
B29: SA301a HC-Y50P (antibody, name in Kabat numbering, V domains shown)
VH: B1 VH with Y51P
VL: B1 VL with M29V
notes: IgG1 kappa
B30: SA301a HC-Y50A (antibody, name in Kabat numbering, V domains shown)
VH: B1 VH with Y51A
VL: B1 VL with M29V
notes: IgG1 kappa
B31: SA301a HC-H52S (antibody, name in Kabat numbering, V domains shown)
VH: B1 VH with H53S
VL: B1 VL with M29V
notes: IgG1 kappa
B32: SA301a HC-I51A (antibody, name in Kabat numbering, V domains shown)
VH: B1 VH with I52A
VL: B1 VL with M29V
notes: IgG1 kappa
B33: SA301a HC-I51S (antibody, name in Kabat numbering, V domains shown)
VH: B1 VH with I52S
VL: B1 VL with M29V
notes: IgG1 kappa
B34: SA301a HC-I51R (antibody, name in Kabat numbering, V domains shown)
VH: B1 VH with I52R
VL: B1 VL with M29V
notes: IgG1 kappa
B35: SA301a HC-Y50M (antibody, name in Kabat numbering, V domains shown)
VH: B1 VH with Y51M
VL: B1 VL with M29V
notes: IgG1 kappa
B36: SA301a HC-I51K (antibody, name in Kabat numbering, V domains shown)
VH: B1 VH with I52K
VL: B1 VL with M29V
notes: IgG1 kappa

One assay concerns the target T1, human IL-18BP. Put plainly: BLI, apparent KD, one conc. In general terms: BLI is a label-free optical method that tracks binding on a fibre tip over time.
As to B1, the Kd amounted to 0.35 nM.

The target of a further assay is T2, cynomolgus IL-18BP. Put plainly: BLI, apparent KD.
With B2, the Kd worked out at 0.91 nM. Same read-out and setting: with B3 the figure was 1.55 nM; with B4, 0.62 nM.

As for B5, the Kd came out at 2.83 nM. Consider B6, for which the Kd came out at 2.43 nM. Same read-out and setting: with B7 the figure was 1.81 nM; with B8, 6.42 nM; with B9, 3.87 nM. On the same count and under the same terms, for B10 the value was 0.88 nM; for B11, 8.97 nM.

In the case of B12, the Kd turned out to be 1.27 nM.

In the case of B13, the Kd turned out to be 1.7 nM. On the same count and under the same terms, with B14 the figure was 0.95 nM; with B15, 1.72 nM; with B16, 0.55 nM. For B17, the Kd was 16.5 nM. For the molecule B18, the Kd worked out at 2.17 nM.

Turning to B19, the Kd was 1.66 nM. Turning to B20, the Kd worked out at 2.85 nM. Still for that read-out and setting: with B21 the figure was 1.12 nM. Still for that read-out and setting: with B22 the figure was 1.93 nM. Same read-out and setting: with B23 the figure was 0.64 nM. In the case of B24, the Kd is 1.55 nM.

Turning to B25, the Kd stood at 0.78 nM. In the case of B26, the Kd is 2.48 nM.

As to B27, the Kd was determined as 4.98 nM. With B28, the Kd was 0.87 nM. On to B29, for which the Kd stood at 4.49 nM. Same read-out and setting: with B30 the figure was 3.8 nM; with B31, 1.16 nM. For B32, the Kd stood at 0.81 nM. On the same count and under the same terms, with B33 the figure was 0.82 nM; with B34, 1.57 nM. Same read-out and setting: for B35 the value was 1.8 nM; for B36, 0.59 nM.

A further assay deals with T3, human IL-18BP. Put plainly: BLI, apparent KD.
For the molecule B2, the Kd is 0.35 nM. The same measure, in the same setting: for B3 the value was 1.36 nM. On the same count and under the same terms, for B4 the value was 0.56 nM; for B5, 1.04 nM. Turning to B6, the Kd was 1.08 nM. Same read-out and setting: for B7 the value was 2.18 nM. For the molecule B8, the Kd was 3.37 nM. As to B9, the Kd was determined as 1.87 nM. Still for that read-out and setting: with B10 the figure was 0.34 nM; with B11, 3.44 nM; with B12, 1.46 nM. The same measure, in the same setting: with B13 the figure was 2.56 nM; with B14, 1.53 nM; with B15, 0.53 nM. Same read-out and setting: with B16 the figure was 0.3 nM; with B17, 5.28 nM; with B18, 1.99 nM. As to B19, the Kd turned out to be 1.68 nM. B20: the Kd came out at 1.03 nM. Turning to B21, the Kd is 1.13 nM.

Turning to B22, the Kd was 3.73 nM. The same measure, in the same setting: with B23 the figure was 0.69 nM; with B24, 2.38 nM; with B25, 0.67 nM. On the same count and under the same terms, with B26 the figure was 2.17 nM; with B27, 1.19 nM; with B28, 0.92 nM. On the same count and under the same terms, for B29 the value was 1.08 nM. With B30, the Kd was 2.97 nM. Still for that read-out and setting: for B31 the value was 0.63 nM; for B32, 0.73 nM; for B33, 0.57 nM. Same read-out and setting: with B34 the figure was 2 nM; with B35, 2.06 nM. Same read-out and setting: with B36 the figure was 0.49 nM.
